Measured values taken from patent US20110201560A1 (DKFZ DEUTSCHES KREBSFORSCHUNGSZENTRUM STIFTUNG DES …, published 2011).

Experiments:
HPV16 E6 oncoprotein [1] = molecular target: T1, HPV16 E6 oncoprotein (HPV16, UniProt P03126 1-158); assay: mutational studies (two-hybrid; assay not further described)
T1 construct: Expressed in yeast from pPC97; In the functional assays it is the endogenous E6 of HPV16-positive cells; also called HPV16 E6 protein; HPV-E6

HPV16 E6 oncoprotein [2] = molecular target: T1, HPV16 E6 oncoprotein; assay: yeast two-hybrid screening
HPV11 E6 protein = molecular target: T2, HPV11 E6 protein (HPV11, UniProt P04019 1-150); assay: yeast two-hybrid
T2 construct: Expressed in yeast from a pPC97 expression vector; also called E6 of HPV11
T2 sequence: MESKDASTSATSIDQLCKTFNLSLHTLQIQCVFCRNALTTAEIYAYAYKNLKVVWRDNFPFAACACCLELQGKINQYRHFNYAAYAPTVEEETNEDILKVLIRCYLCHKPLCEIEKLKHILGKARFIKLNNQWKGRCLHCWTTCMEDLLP

HPV6 E6 protein = molecular target: T3, HPV6 E6 protein (HPV6, UniProt P06462 1-150); assay: yeast two-hybrid
T3 construct: Expressed in yeast from a pPC97 expression vector; also called E6 of HPV6
T3 sequence: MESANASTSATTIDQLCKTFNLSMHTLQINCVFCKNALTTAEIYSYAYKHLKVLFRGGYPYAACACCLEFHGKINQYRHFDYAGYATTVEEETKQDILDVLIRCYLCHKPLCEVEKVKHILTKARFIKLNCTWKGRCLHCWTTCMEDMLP

HPV18 E6 protein = molecular target: T4, HPV18 E6 protein (HPV18, UniProt P06463 1-158); assay: yeast two-hybrid
T4 construct: Expressed in yeast from a pPC97 expression vector; also called E6 of HPV18
T4 sequence (P06463 whole entry): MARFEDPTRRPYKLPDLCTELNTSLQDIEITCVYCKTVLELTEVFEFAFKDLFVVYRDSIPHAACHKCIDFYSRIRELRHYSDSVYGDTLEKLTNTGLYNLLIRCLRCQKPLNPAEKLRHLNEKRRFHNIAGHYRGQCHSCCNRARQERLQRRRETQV

T1 sequence (P03126 whole entry): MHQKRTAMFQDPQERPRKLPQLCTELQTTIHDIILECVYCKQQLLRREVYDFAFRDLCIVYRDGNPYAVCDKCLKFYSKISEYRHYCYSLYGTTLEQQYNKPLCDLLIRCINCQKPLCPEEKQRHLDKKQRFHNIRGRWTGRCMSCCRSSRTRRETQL

B1: pep11**m (peptide)
peptide: KEKEEYNSNSSSIASIGLI
notes: also called b2
binding result (HPV16 E6 oncoprotein [1]): no binding

B2: E6 pep 1 (peptide)
peptide: KGSLNCSCLVCWLQMFLGEFGP
notes: Linear peptide from a randomized 20-mer library; Expressed in yeast as a GAL4AD fusion (vector pADpep); also called a1
binding result (HPV16 E6 oncoprotein [2]): binds | binding result (HPV11 E6 protein): no binding | binding result (HPV6 E6 protein): no binding | binding result (HPV18 E6 protein): no binding

B3: E6 pep5 (peptide)
peptide: PFLLGCFCLCCWIECQIGSYGP
notes: Linear peptide from a randomized 20-mer library; Expressed in yeast as a GAL4AD fusion (vector pADpep); also called a2
binding result (HPV16 E6 oncoprotein [2]): binds | binding result (HPV11 E6 protein): no binding | binding result (HPV6 E6 protein): no binding | binding result (HPV18 E6 protein): no binding

B4: E6 pep 11 (peptide)
peptide: EFGSGCSCIVCIGLI
notes: Expressed in yeast as a GAL4AD fusion (pADpep), in the mammalian two-hybrid assay as a VP16AD fusion (pACT2), and in the p53 reporter assay as an hrGFP fusion; also called a3
binding result (HPV16 E6 oncoprotein [2]): binds | binding result (HPV11 E6 protein): no binding | binding result (HPV6 E6 protein): no binding | binding result (HPV18 E6 protein): no binding
